# According to PMC12027964, “Centrifugation-Based Purification Protocol Optimization Enhances Structural Preservation of Nucleopolyhedrovirus Budded Virion Envelopes” (Insects, 2025):
# B1: GP64 envelope fusion protein of Autographa californica multiple nucleopolyhedrovirus (AcMNPV) (natural protein)
# chain: AEHCNAQMKTGPYKIKNLDITPPKETLQKDVEITIVETDYNENVIIGYKGYYQAYAYNGGSLDPNTRVEETMKTLNVGKEDLLMWSIRQQCEVGEELIDRWGSDSDDCFRDNEGRGQWVKGKELVKRQNNNHFAHHTCNKSWRCGISTSKMYSRLECQDDTDECQVYILDAEGNPINVTVDTVLHRDGVSMILKQKSTFTTRQIKAACLLIKDDKNNPESVTREHCLIDNDIYDLSKNTWNCKFNRCIKRKVEHRVKKRPPTWRHNVRAKYTEGDTATKGDLMHIQEELMYENDLLKMNIELMHAHINKLNNMLHDLIVSVAKVDERLIGNLMNNSVSSTFLSDDTFLLMPCTNPPAHTSNCYNNSIYKEGRWVANTDSSQCIDFSNYKELAIDDDVEFWIPTIGNTTYHDSWKDASGWSFIAQQKSNLITTMENTKFGGVGTSLSDITSMAEGELAAKLTSFMFGHVVNFVIILIVILFLYCMIRNRNRQY
# notes: Native viral protein, no tag; also called prefusion GP64; Frac B; source: purified from recombinant AcMNPV budded virions produced in Sf9 cells (1% DDM / 0.1% CHS extraction, Superdex 200 SEC)
# Molecular target: the molecule itself
# Assay: cryo-EM structure; GP64 solubilised from purified BV particles with DDM/CHS, SEC fraction B in TN buffer (50 mM Tris-HCl pH 8, 150 mM NaCl) with 0.02% DDM and 0.002% CHS, about 1 mg/mL; single-particle reconstruction (7913 particles, 15 Å); prefusion GP64 model PDB 8YG6 fitted into the map
protein,measurement,value
B1,stoichiometry N,3
